The numbers were not newly measured in article PMC3634864, which cites them from elsewhere.

Where only a bound is given, the exact number is not on record here.

The target in this series is Hemoglobin (Homo sapiens) (UniProt P69905).
Chain of UniProt P69905 (P69905 2-142, chain 1 of 2): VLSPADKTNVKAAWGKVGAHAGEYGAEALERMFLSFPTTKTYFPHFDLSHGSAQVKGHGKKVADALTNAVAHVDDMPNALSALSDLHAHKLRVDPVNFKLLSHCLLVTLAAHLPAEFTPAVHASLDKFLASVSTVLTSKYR
Chain of UniProt P69905 (P68871 2-147, chain 2 of 2, further chain): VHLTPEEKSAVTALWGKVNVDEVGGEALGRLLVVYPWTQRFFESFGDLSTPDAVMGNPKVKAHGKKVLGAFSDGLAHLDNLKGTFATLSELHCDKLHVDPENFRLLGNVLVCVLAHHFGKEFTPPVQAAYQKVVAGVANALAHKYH

Turning to Haptoglobin (from UniProt P00738), the Kd was less than 1 pM.
